Assays:
human TIM-3 on cells [1] = target: T1, human TIM-3 on cells (human, UniProt Q8TDQ0 22-301); experiment: cell-based or functional assay
human TIM-3 on cells [2] = target: T1, human TIM-3 on cells; experiment: cell-based or functional assay; remark: listed apart in the source
human TIM-3 on cells [3] = target: T1, human TIM-3 on cells; experiment: cell-based or functional assay; remark: listed apart in the source
[4] = target: T2, huFc fused dimeric human Tim3-ECD (human, UniProt Q8TDQ0 22-202); experiment: SPR Biacore, bivalent Tim3
T2 construct: also called huTim3Fc; bivalent Tim3
Procedure: (§1) Therefore, an anti-mouse IgG was immobilized by amine coupling to the surface of a (Biacore) CM5 sensor chip. The samples were then captured and hu/cy Tim3-ECD was bound to them. The sensor chip surface was regenerated after each analysis cycle. The equilibrium constant KD was finally gained by fitting the data to a 1:1 langmuir interaction model.
(§2) Flow cell temperature was set to 25° C. and sample compartment temperature to 12° C. The system was primed with running buffer. The samples were injected for 30 seconds with a concentration of 200 μg/ml and bound to the spots 1 and 5 of each flow cell, allowing the measurement of eight samples in parallel. Then a complete set of different (monomeric cyno, monomeric human and huFc fused dimeric human Tim3-ECD) concentrations (s. Table X) was injected over each sample for 240 s followed by a dissociation time of 30/1800 s (s. Table 1). Each analysis cycle (sample capture, spot 1 and 5—Tim3 ECD injection) was then regenerated with a 30 seconds long injection of Glycine-HCl pH 1.7. The flow rate was set to 30 μl/min for the whole run. Finally, the double referenced data was fitted to a 1:1 langmuir interaction model with the Biacore B4000 Evaluation Software.

Tim3-ECD-His-Biotin = target: T3, Tim3-ECD-His-Biotin (human, UniProt Q8TDQ0 22-202); experiment: ELISA on Tim3-ECD-His-Biotin
T3 construct: also called human Tim3 (ELISA); Biochem Human
Procedure: After washing (3×90 μl/well with PBST-buffer) 25 μl aTim3 samples or diluted (1:2 steps) reference antibody aTim3 F38-2E2 (Biolegend) was added and incubated 1 h at RT. After washing (3×90 μl/well with PBST-buffer) 25 μl/well sheep-anti-mouse-POD (GE NA9310V) was added in 1:9000 dilution and incubated at RT for 1 h while shaking at 400 rpm rotation. After washing (4×90 μl/well with PBST-buffer) 25 μl/well TMB substrate (Calbiochem, #CL07) was added and incubated until OD 1.5-2.5. Then the reaction was stopped by addition of 25 μl/well 1N HCL-solution.

human TIM-3 on cells [5] = target: T1, human TIM-3 on cells; experiment: cell ELISA, CHO-K1 expressing human Tim3
Procedure: Then the reaction was stopped by addition of 25 μl/well 1N HCL-solution.

[6] = target: T4, cynomolgus TIM-3 on isolated cyno CD14+ monocytes (cynomolgus); experiment: flow cytometry, cyno CD14+ monocytes cyno1
T4 construct: whole, on cells
Source text: (§3) CD14+ Monocytes were isolated from cynomolgus monkey anticoagulated peripheral blood (Covance) by density gradient centrifugation using Ficoll-Paque (GE Healthcare) (see General Protocols in the User Manuals or visit www.miltenyibiotec.com/protocols) and subsequent positive selection via NHP CD14 MicroBeads. First the CD14+ cells are magnetically labeled with CD14 MicroBeads. Then the cell suspension is loaded onto a MACS® Column which is placed in the magnetic field of a MACS Separator. The magnetically labeled CD14+ cells are retained in the column. The unlabeled cells run through, this cell fraction is depleted of CD14+ cells. After removal of the column from the magnetic field, the magnetically retained CD14+ cells can be eluted as the positively selected cell fraction. After centrifugation at 200×g for 10 min at room temperature the monocytes were harvested and used directly in binding assay or resuspended in freezing medium (10% DMSO, 90% FCS) at 1.0E+07 cells/ml and stored in liquid nitrogen.
(§4) 1×10⁵ CD14+ isolated cyno monocytes (50 μl/well) were put into 98 well-v bottom MTP in fresh culture medium and incubated with Redimune® NF Liquid for 15 min at RT to block unspecific binding. Than 50 μl/well of Alexa488 labeled anti-TIM3 (10 μg/ml in cell culture medium) were added and incubated for 1 h at 4° C. After washing and centrifugation MFI signals of stained cells were analyzed by BD Biosciences FACSCanto flow cytometer.

[7] = target: T4, cynomolgus TIM-3 on isolated cyno CD14+ …; experiment: flow cytometry, cyno CD14+ monocytes cyno2
Source text: as §3, §4

[8] = target: T4, cynomolgus TIM-3 on isolated cyno CD14+ …; experiment: flow cytometry, cyno CD14+ monocytes cyno3
Source text: as §3, §4

human TIM-3 on cells [9] = target: T1, human TIM-3 on cells; experiment: flow cytometry, human CD14+ monocytes donor1
Source text: (§5) CD14+ Monocytes were isolated from anticoagulated peripheral blood of healthy donors by density gradient centrifugation using Ficoll-Paque (GE Healthcare) (see General Protocols in the User Manuals or visit www.miltenyibiotec.com/protocols) and subsequent positive selection via CD14 MicroBeads. First the CD14+ cells are magnetically labeled with CD14 MicroBeads. Then the cell suspension is loaded onto a MACS® Column which is placed in the magnetic field of a MACS Separator. The magnetically labeled CD14+ cells are retained in the column. The unlabeled cells run through, this cell fraction is depleted of CD14+ cells. After removal of the column from the magnetic field, the magnetically retained CD14+ cells can be eluted as the positively selected cell fraction. After centrifugation at 200×g for 10 min at room temperature the monocytes were harvested and used directly in binding assay or resuspended in freezing medium (10% DMSO, 90% FCS) at 1.0E+07 cells/ml and stored in liquid nitrogen.
(§6) 1×10⁵ CD14+ isolated human monocytes (50 μl/well) were put into 98 well-v bottom MTP in fresh culture medium and incubated with Redimune® NF Liquid for 15 min at RT to block unspecific binding. […] After washing and centrifugation MFI signals of stained cells were analyzed by BD Biosciences FACSCanto flow cytometer.

human TIM-3 on cells [10] = target: T1, human TIM-3 on cells; experiment: flow cytometry, human CD14+ monocytes donor2
Source text: as §5, §6

human TIM-3 on cells [11] = target: T1, human TIM-3 on cells; experiment: flow cytometry, human CD14+ monocytes donor3
Source text: as §5, §6

[12] = target: T2, huFc fused dimeric human Tim3-ECD; experiment: SPR Biacore, antibody captured by anti-mouse IgG
Procedure: as §1, §2

[13] = target: human FolR2 on transiently transfected HEK cells (human, UniProt P14207 17-230); experiment: flow cytometry on HEK cells transiently transfected with human FolR2, anti-human secondary antibody; concentration not given
Sequence of human FolR2 on transiently transfected HEK cells (P14207 17-230 limits assumed): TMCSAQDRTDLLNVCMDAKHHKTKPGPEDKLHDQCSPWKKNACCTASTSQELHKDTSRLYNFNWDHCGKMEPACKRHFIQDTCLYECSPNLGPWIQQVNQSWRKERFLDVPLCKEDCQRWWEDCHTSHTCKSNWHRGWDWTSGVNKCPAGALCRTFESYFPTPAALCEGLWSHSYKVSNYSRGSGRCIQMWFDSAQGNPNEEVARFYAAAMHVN

human TIM-3 on cells [14] = target: T1, human TIM-3 on cells; experiment: cell-based or functional assay; remark: listed apart in the source
human TIM-3 on cells [15] = target: T1, human TIM-3 on cells; experiment: cell-based or functional assay; remark: listed apart in the source
monomeric cyno Tim3-ECD = target: T5, monomeric cyno Tim3-ECD (cynomolgus, UniProt A0A2K5U3G7 22-195); experiment: SPR Biacore, antibody captured by anti-mouse IgG
T5 construct: extracellular domain; also called cyTim3
T5 sequence: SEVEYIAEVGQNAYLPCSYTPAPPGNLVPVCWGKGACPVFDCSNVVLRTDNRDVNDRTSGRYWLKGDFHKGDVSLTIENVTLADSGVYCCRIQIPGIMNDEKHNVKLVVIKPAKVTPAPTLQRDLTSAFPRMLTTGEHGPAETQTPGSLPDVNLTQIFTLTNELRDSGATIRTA
Procedure: as §1, §2

[16] = target: T6, cynomolgus FolR1 ECD-AcTev-Fcknob-Avi tag + Fc hole, biotinylated monomeric Fc fusion (cynomolgus, UniProt P0DOX5 223-449 = IgG part); experiment: SPR, apparent KD, bivalent binding (avidity)
T6 construct: also called cyFolR1; cyno FolR1-Fc
Procedure: (§7) Binding of FolR1 binders as IgG or in the T-cell bispecific format to different recombinant folate receptors (human FolR1, 2 and 3, murine FolR1 and cynomolgus FolR1; all as Fc fusions) was assessed by surface plasmon resonance (SPR).
Recombinant biotinylated monomeric Fc fusions of human, cynomolgus and murine Folate Receptor 1 (FolR1-Fc) were directly coupled on a SA chip using the standard coupling instruction (Biacore, Freiburg/Germany). The immobilization level was about 300-400 RU. The anti-FolR1 IgGs or T cell bispecifics were passed at a concentration range from 2.1 to 500 nM with a flow of 30 μL/minutes through the flow cells over 180 seconds. The dissociation was monitored for 600 seconds. Bulk refractive index differences were corrected for by subtracting the response obtained on reference flow cell immobilized with recombinant biotinylated IL2 receptor Fc fusion. […] The binding curves resulting from the bivalent binding of the IgGs or T cell bispecifics were approximated to a 1:1 Langmuir binding and fitted with that model (which is not correct, but gives an idea of the avidity). The apparent avidity constants for the interactions were derived from the rate constants of the fitting using the Bia Evaluation software (GE Healthcare).

[17] = target: T6, cynomolgus FolR1 ECD-AcTev-Fcknob-Avi …; experiment: SPR, monovalent, antibody captured by anti-Fab
Procedure: as §7
For affinity measurement, direct coupling of around 6000-7000 resonance units (RU) of the anti-human Fab specific antibody (Fab capture kit, GE Healthcare) was performed on a CM5 chip at pH5.0 using the standard amine coupling kit (GE Healthcare). Anti-FolR1 IgGs or T cell bispecifics were captured at 20 nM with a flow rate of 10 μl/min for 20 or 40 sec, the reference flow cell was left without capture. […] The dissociation phase was monitored for 240 sand triggered by switching from the sample solution to HBS-EP. The chip surface was regenerated after every cycle using a double injection of 60 sec 10 mM Glycine-HCl pH 2.1 or pH1.5. Bulk refractive index differences were corrected for by subtracting the response obtained on the reference flow cell 1. The affinity constants for the interactions were derived from the rate constants by fitting to a 1:1 Langmuir binding using the Bia Evaluation software (GE Healthcare).

monomeric human Tim3-ECD [18] = target: T7, monomeric human Tim3-ECD (human, UniProt Q8TDQ0 22-202); experiment: SPR Biacore, monovalent Tim3
T7 construct: also called huTim3
Procedure: as §1, §2

monomeric human Tim3-ECD [19] = target: T7, monomeric human Tim3-ECD; experiment: SPR Biacore, antibody captured by anti-mouse IgG
Procedure: as §1, §2

[20] = target: T8, murine FolR1 ECD-AcTev-Fcknob-Avitag + Fc hole, biotinylated monomeric Fc fusion (murine, UniProt P0DOX5 223-449 = IgG part); experiment: SPR, IgG single injection
T8 construct: also called muFolR1; murine FolR1-Fc

B1: Tim3_0033 Fab-PE24 construct (Fab, V domains shown)
VH: QGQMHQSGAELVKPGSSVKLSCKTSGFTFSSSFISWLKQKPGQSLEWIAWIYAATGSTSYNQKFTNKAQLTVDTSSSAAYMQFSSLTTEDSAIYYCARHAGYPHYYAMDYWGQGTSVTVSS
VL: DIQMTQSPASLSASVGETVTITCRASENIFSNLAWYQQKQGKSPQLLVYSATNLGDGVPSRFSGSGSGTQFSLKINSLQPEDFGNYYCQHFYKIPFTFGTGTKLEIK
Max. killing, Pfeiffer cells (human TIM-3 on cells [1]): 99.8% | Max. killing, RPMI-8226 cells (human TIM-3 on cells [1]): 99.7%

B2: Tim3_0033 (antibody, V domains shown)
VH: B1 VH
VL: B1 VL
IFN-gamma release in MLR at 1 µg/ml, % of IL-2 control (human TIM-3 on cells [2]): 0% | IFN-gamma release in MLR at 10 µg/ml, % of IL-2 control (human TIM-3 on cells [2]): 30% | IFN-gamma release in MLR at 40 µg/ml, % of IL-2 control (human TIM-3 on cells [2]): 35% | internalization at 30 Min, RPMI-8226 (human TIM-3 on cells [3]): 75% | internalization at 60 Min, RPMI-8226 (human TIM-3 on cells [3]): 81% | internalization at 120 Min, RPMI-8226 (human TIM-3 on cells [3]): 82% | internalization at 240 Min, RPMI-8226 (human TIM-3 on cells [3]): 82% | internalization at 26 h, RPMI-8226 (human TIM-3 on cells [3]): 80% | Kd [4]: 3.1 nM | EC50 (Tim3-ECD-His-Biotin): 1.32 µg/mL | EC50 (human TIM-3 on cells [5]): 3.71 µg/mL | MFI [6]: 71 MFI | MFI [7]: 81 MFI | MFI [8]: 83 MFI | specific binding MFI (human TIM-3 on cells [9]): 480 MFI | specific binding MFI (human TIM-3 on cells [10]): 328 MFI | specific binding MFI (human TIM-3 on cells [11]): 595 MFI | Kd [12]: 3.05 nM

B3: 11F8 IgG (antibody, V domains shown)
VH: QVQLVQSGAEVKKPGSSVKVSCKASGGTFSSYAISWVRQAPGQGLEWMGGIIPIFGTANYAQKFQGRVTITADKSTSTAYMELSSLRSEDTAVYYCARAVFYRAWYSFDYWGQGTTVTVSS
VL: DIQMTQSPSTLSASVGDRVTITCRASQSISSWLAWYQQKPGKAPKLLIYDASSLESGVPSRFSGSGSGTEFTLTISSLQPDDFATYYCQQYTSPPPTFGQGTKVEIK
notes: human IgG1
binding result [13]: binds

B4: Tim3_0016 Fab-PE24 construct (Fab, V domains shown)
VH: QVTLKESGPGILQPSQTLRLTCSFSGFSLSTSGMSVGWIRQPSGKGLEWLAHIWLNDDVFFNPALKSRLTISKDTSNNQVFLQIASVVTADTATYYCVRANGYLYALDYWGQGTSVTVSS
VL: QIVLTQSPAIMSASPGQKVTITCSASSSVNYTQWYQQKLGSSPKLWIYDAFKLAPGVPARFSGSGTGTSYSLTISSMEAEDAASYFCHQWSSYPWTFGGGTKLEIK
IC50 cytotoxicity, CMK (human TIM-3 on cells [14]): 225 nM | IC50 cytotoxicity, Karpas-299 (human TIM-3 on cells [14]): 4 nM | IC50 cytotoxicity, MOLM-13 (human TIM-3 on cells [14]): 459 nM | IC50 cytotoxicity, TF-1 (human TIM-3 on cells [14]): 534 nM | IC50 cytotoxicity, primary AML CD34+ PB0135 (human TIM-3 on cells [15]): > 691 nM | IC50 cytotoxicity, primary AML CD34+ PB0136 (human TIM-3 on cells [15]): > 691 nM

B5: Tim3_0016 (antibody, V domains shown)
VH: B4 VH
VL: B4 VL
notes: also called clone 0016
IFN-gamma release in MLR at 1 µg/ml, % of IL-2 control (human TIM-3 on cells [2]): 7% | IFN-gamma release in MLR at 10 µg/ml, % of IL-2 control (human TIM-3 on cells [2]): 22% | MFI [6]: 157 MFI | MFI [7]: 177 MFI | MFI [8]: 187 MFI | specific binding MFI (human TIM-3 on cells [9]): 2120 MFI | specific binding MFI (human TIM-3 on cells [10]): 1630 MFI | specific binding MFI (human TIM-3 on cells [11]): 1690 MFI | Kd (monomeric cyno Tim3-ECD): 21.6 nM

B6: Farletuzumab (antibody, V domains shown)
VH: EVQLVESGGGVVQPGRSLRLSCSASGFTFSGYGLSWVRQAPGKGLEWVAMISSGGSYTYYADSVKGRFAISRDNAKNTLFLQMDSLRPEDTGVYFCARHGDDPAWFAYWGQGTPVTVSS
VL: DIQLTQSPSSLSASVGDRVTITCSVSSSISSNNLHWYQQKPGKAPKPWIYGTSNLASGVPSRFSGSGSGTDYTFTISSLQPEDIATYYCQQWSSYPYMYTFGQGTKVEIKR
Kd [16]: 0.65 nM | Kd [17]: 67.3 nM

B7: Tim3_0021 Fab-PE24 construct (Fab, V domains shown)
VH: QVQLQQSGPQLVRPGASVQISCKASGYSFTSYLLHWLKQRPGQGLEWIGMIDPSDSETRLNQKFKDKATLTVDKSSSTAYMQLSSPTSEDSAVYYCARDGYYAWYYFDCWGQGTTLTVSS
VL: DIVLTQSPATLSVTPGDRVSLSCRASQSIGNNLHWYQQKSHESPRLLIKYASHSISGIPSKFSGTGSGTDFTLSFNSVETEDFGMYFCQQSNSWPLTFGAGTKLELK
Max. killing, Pfeiffer cells (human TIM-3 on cells [1]): 98.4%

B8: Tim3_0021 (antibody, V domains shown)
VH: B7 VH
VL: B7 VL
IFN-gamma release in MLR at 1 µg/ml, % of IL-2 control (human TIM-3 on cells [2]): 101% | IFN-gamma release in MLR at 10 µg/ml, % of IL-2 control (human TIM-3 on cells [2]): 108% | IFN-gamma release in MLR at 40 µg/ml, % of IL-2 control (human TIM-3 on cells [2]): 112% | internalization at 30 Min, RPMI-8226 (human TIM-3 on cells [3]): 70% | internalization at 60 Min, RPMI-8226 (human TIM-3 on cells [3]): 75% | internalization at 120 Min, RPMI-8226 (human TIM-3 on cells [3]): 74% | internalization at 240 Min, RPMI-8226 (human TIM-3 on cells [3]): 78% | internalization at 26 h, RPMI-8226 (human TIM-3 on cells [3]): 77% | Kd [4]: 4.1 nM | EC50 (Tim3-ECD-His-Biotin): 0.047 µg/mL | Kd (monomeric human Tim3-ECD [18]): 204 nM | EC50 (human TIM-3 on cells [5]): 0.073 µg/mL | MFI [6]: 348 MFI | MFI [7]: 473 MFI | MFI [8]: 399 MFI | specific binding MFI (human TIM-3 on cells [9]): 1130 MFI | specific binding MFI (human TIM-3 on cells [10]): 951 MFI | specific binding MFI (human TIM-3 on cells [11]): 1200 MFI | Kd (monomeric human Tim3-ECD [19]): 204 nM | Kd [12]: 4.07 nM

B9: 5D9 IgG (antibody, V domains shown)
VH: QVQLVQSGAEVKKPGASVKVSCKASGYTFTSYYMHWVRQAPGQGLEWMGIINPSGGSTSYAQKFQGRVTMTRDTSTSTVYMELSSLRSEDTAVYYCARSYIDMDYWGQGTLVTVSS
VL: EIVLTQSPGTLSLSPGERATLSCRASQSVSSSYLAWYQQKPGQAPRLLIYGASSRATGIPDRFSGSGSGTDFTLTISRLEPEDFAVYYCQQDNWSPTFGQGTKVEIK
notes: human IgG1
binding result [20]: no binding (tested: 500 nM) | binding result [13]: binds

B10: Tim3_0022 Fab-PE24 construct (Fab, V domains shown)
VH: EVQLQESGPSLVKPSQTLSLTCSVTGDSIASAYWNWIRKFPGNKLEYMGYINYSGSTYYNPSLKSRISITRDTSQNQYYLQLNSVTTEDTATYYCVTGDYFDYWGRGTTLTVSS
VL: DIQMTQSPSSLSAYLGGKVTITCKARQDVRKNIGWYQHKPGKGPRLLIWYTSTLQSGIPSRFSGSGSGRDYSFNINNLEPEDIATYYCLQYDNLPFTFGTGTKLEIR
IC50 cytotoxicity, CMK (human TIM-3 on cells [14]): 255 nM | IC50 cytotoxicity, Karpas-299 (human TIM-3 on cells [14]): 10 nM | IC50 cytotoxicity, MOLM-13 (human TIM-3 on cells [14]): 579 nM | IC50 cytotoxicity, TF-1 (human TIM-3 on cells [14]): 299 nM | IC50 cytotoxicity, primary AML CD34+ PB0135 (human TIM-3 on cells [15]): > 691 nM | IC50 cytotoxicity, primary AML CD34+ PB0136 (human TIM-3 on cells [15]): > 691 nM

B11: Tim3_0022 (antibody, V domains shown)
VH: B10 VH
VL: B10 VL
MFI [6]: 115 MFI | MFI [7]: 134 MFI | MFI [8]: 138 MFI | specific binding MFI (human TIM-3 on cells [9]): 1470 MFI | specific binding MFI (human TIM-3 on cells [10]): 1110 MFI | specific binding MFI (human TIM-3 on cells [11]): 1240 MFI | Kd (monomeric human Tim3-ECD [19]): 126 nM | Kd (monomeric cyno Tim3-ECD): 28.4 nM

From patent US20210087291A1 (Hoffmann-La Roche, published 2021)
